Here are results for four molecules from patent US8173771B2, “Humanin receptor or humanin-like polypeptide receptor” (Keio Univeristy, priority 2005, dated 2012).

This assay deals with primary cortical neurons (PCNs). Nature of the assay: Aβ neurotoxicity in primary cortical neurons, WST-8 / Calcein / LDH. The class given is cell-based, mouse. The note with it: 25 μM Aβ; for inhibition of neurotoxicity by Aβ: cytokine alone, physiological levels (up to 100 ng/ml). As to the method: B) PCNs were incubated with 25 μM Aβ (upper) in the presence of 10 μg of recombinant soluble human gp130 (lower “+”) or BSA (lower “−”). Cell viability was determined by WST-8 assay (upper) or Calcein fluorescence assay (lower) at 72 hr after the onset of treatment with Aβ.
C) PCNs were incubated with 25 μM Aβ (1-43) in the presence of 1 μg of neutralizing anti-mouse gp130 antibody (RX435) or control IgG. Cell viability and cell mortality were determined by Calcein fluorescence (left panel) and LDH assays (right panel), respectively, at 72 hr after the onset of treatment with Aβ (1-43).
[…] At 72 hr after incubation, the cells were harvested for WST-8 assays or/and Calcein fluorescence assays to show cell viability.
B) The soluble IL-6 receptor-α (sIL-6R) or the soluble CNTF-R (100 ng/ml) were added to the cells as in the above A), followed by the stimulation with its ligand, IL-6 or CNTF (100 ng/ml), respectively to show the effects on the neuronal cell death due to Aβ. The right and left graphs show the cell viabilities determined by WST-8 assays and Calcein fluorescence assays, respectively.
C) The neutralizing antibodies (1 μg) for the mouse gp130, mouse LIFR, mouse IL-11R and rat CNTF-R were added as in the above A), and cell viability was determined by Calcein fluorescence assays after 72 hours.
WST-8 assay was performed at 72 hrs after the treatment.
The primary culture of mouse cortical neurons was prepared as described previously (Sudo et al., 2000). Briefly, primary cortical neurons, obtained from embryonic day 14 (E14) ICR mice were seeded in poly-L-lysine-coated 96 well plates (Sumitomo Bakelite) at 2.5 or 5.0×10^4 cells/well in Neuron Medium (Sumitomo Bakelite) (Hashimoto et al., 2003; Niikura et al., 2004). Purity of neurons by this method was >98%. After 3 days, the culture medium was replaced with DMEM with N2 supplement. On the fourth day in vitro, 25 μM of Aβ (1-42) was added in association with indicated concentrations of HN or cytokines in the presence or the absence of soluble cytokine receptors or neutralizing antibodies. At 72 hrs after the onset of treatment, cell viability was assessed by WST-8 assay and/or Calcein fluorescence assay and cell mortality was assessed by the Trypan blue exclusion assay and LDH assay (Hashimoto et al, 2000, 2001 a b, 2003).

B1: IL-11: recombinant cytokine of the IL-6 family (protein, UniProt P47873 22-199, looked up)
Interleukin-11: PGPPAGSPRVSSDPRADLDSAVLLTRSLLADTRQLAAQMRDKFPADGDHSLDSLPTLAMSAGTLGSLQLPGVLTRLRVDLMSYLRHVQWLRRAGGPSLKTLEPELGALQARLERLLRRLQLLMSRLALPQAAPDQPVIPLGPPASAWGSIRAAHAILGGLHLTLDWAVRGLLLLKTRL
For the molecule B1, the “inhibition of neurotoxicity by Aβ” value is reported as “did not inhibit”.

B2: recombinant soluble human gp130: recombinant soluble human gp130 consisting of the extracellular domain of human gp130; dominant-negative form (protein, UniProt P40189 23-619, looked up)
extracellular domain: ELLDPCGYISPESPVVQLHSNFTAVCVLKEKCMDYFHVNANYIVWKTNHFTIPKEQYTIINRTASSVTFTDIASLNIQLTCNILTFGQLEQNVYGITIISGLPPEKPKNLSCIVNEGKKMRCEWDGGRETHLETNFTLKSEWATHKFADCKAKRDTPTSCTVDYSTVYFVNIEVWVEAENALGKVTSDHINFDPVYKVKPNPPHNLSVINSEELSSILKLTWTNPSIKSVIILKYNIQYRTKDASTWSQIPPEDTASTRSSFTVQDLKPFTEYVFRIRCMKEDGKGYWSDWSEEASGITYEDRPSKAPSFWYKIDPSHTQGYRTVQLVWKTLPPFEANGKILDYEVTLTRWKSHLQNYTVNATKLTVNLTNDRYLATLTVRNLVGKSDAAVLTIPACDFQATHPVMDLKAFPKDNMLWVEWTTPRESVKKYILEWCVLSDKAPCITDWQQEDGTVHRTYLRGNLAESKCYLITVTPVYADGPGSPESIKAYLKQAPPSKGPTVRTKKVGKNEAVLEWDQLPVDVQNGFIRNYTIFYRTIIGNETAVNVDSSHTEYTLSSLTSDTLYMVRMAAYTDEGGKDGPEFTFTTPKFAQGEIE
modifications: extracellular domain
notes: recombinant soluble human gp130 consisting of the extracellular domain of human gp130; dominant-negative form
For the molecule B2, the “effect on HN-mediated neuroprotection” value (PCNs) was “complete suppression”.

B3: OSM: human OncostatinM, recombinant cytokine (protein, UniProt P13725 26-221, looked up)
Oncostatin-M: AAIGSCSKEYRVLLGQLQKQTDLMQDTSRLLDPYIRIQGLDVPKLREHCRERPGAFPSEETLRGLGRRGFLQTLNATLGCVLHRLADLEQRLPKAQDLERSGLNIEDLEKLQMARPNILGLRNNIYCMAQLLDNSDTAEPTKAGRGASQPPTPTPASDAFQRKLEGCRFLHGYHRFMHSVGRVFSKWGESPNRSRR
For B3, the “inhibition of neurotoxicity by Aβ” value is on record as “did not inhibit”.

B4: CT-1: mouse cardiotropin-1, recombinant cytokine (protein, UniProt Q60753 1-203, looked up)
Cardiotrophin-1: MSQREGSLEDHQTDSSISFLPHLEAKIRQTHNLARLLTKYAEQLLEEYVQQQGEPFGLPGFSPPRLPLAGLSGPAPSHAGLPVSERLRQDAAALSVLPALLDAVRRRQAELNPRAPRLLRSLEDAARQVRALGAAVETVLAALGAAARGPGPEPVTVATLFTANSTAGIFSAKVLGFHVCGLYGEWVSRTEGDLGQLVPGGVA
Turning to B4, the “inhibition of neurotoxicity by Aβ” value is “did not inhibit”.
